The values that follow come from patent publication US20210309754A1 (JCR PHARMACEUTICALS, published 2021).

This experiment addresses T1, recombinant monkey TfR (r monkey TfR: Sino Biological Inc.), cynomolgus monkey TfR extracellular region with … (cynomolgus monkey (Macaca fascicularis), UniProt Q5RDH6 89-760 (Pongo abelii entry)).
T1 construct: Bought (Sino Biological); also called r monkey TfR-ECD (Histag); not shown: histidine tag attached to the N-terminus
T1 chain: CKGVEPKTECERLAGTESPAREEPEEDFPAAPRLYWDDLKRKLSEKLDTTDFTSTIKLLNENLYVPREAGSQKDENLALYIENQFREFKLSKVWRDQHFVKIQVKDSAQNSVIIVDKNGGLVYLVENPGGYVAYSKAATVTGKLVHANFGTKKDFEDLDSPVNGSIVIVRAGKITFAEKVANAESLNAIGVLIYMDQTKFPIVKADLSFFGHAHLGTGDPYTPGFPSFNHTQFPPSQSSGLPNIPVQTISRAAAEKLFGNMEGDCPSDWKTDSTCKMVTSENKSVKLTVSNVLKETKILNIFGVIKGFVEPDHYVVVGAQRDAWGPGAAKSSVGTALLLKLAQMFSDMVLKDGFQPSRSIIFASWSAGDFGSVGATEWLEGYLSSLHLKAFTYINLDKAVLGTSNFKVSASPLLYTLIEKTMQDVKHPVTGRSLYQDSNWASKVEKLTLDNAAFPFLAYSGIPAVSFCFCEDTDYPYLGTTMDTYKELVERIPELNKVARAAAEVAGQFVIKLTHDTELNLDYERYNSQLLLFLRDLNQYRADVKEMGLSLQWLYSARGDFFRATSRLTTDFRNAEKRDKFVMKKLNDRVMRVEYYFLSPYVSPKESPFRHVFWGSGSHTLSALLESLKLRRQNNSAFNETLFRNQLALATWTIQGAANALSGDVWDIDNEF
Briefly: BLI, Octet RED96, His-TfR ECD on Ni-NTA sensor. As to the method:
By measuring the variations of this shift between the interfering waves, determination of the number of the molecules bound to the layer of the biomolecules immobilized to the sensor tip surface and kinetic analysis of it can be performed in real time. The measurement was performed according generally to the operating manual attached to Octet RED96. As a human TfR, a recombinant human TfR (r human TfR: Sino Biological Inc.) was used, which had the amino acid sequence of the hTfR extracellular region, i.e., the cysteine residue at the position 89th from the N-terminal side to the phenylalanine at the C-terminus, of the amino acid sequence set forth as SEQ ID NO:1, with a histidine tag attached to the N-terminus. As a monkey TfR, a recombinant monkey TfR (r monkey TfR: Sino Biological Inc.) was used, which had the amino acid sequence of the cynomolgus monkey TfR extracellular region, i.e., the cysteine residue at the position 89th from the N-terminal side to the phenylalanine at the C-terminus, of the amino acid sequence set forth as SEQ ID NO:2, with a histidine tag attached to the N-terminus. […]
On the technique in general: In BLI a coated tip is dipped into the sample, and binding shifts an interference pattern.

By Kd is commonly meant the equilibrium constant for the complex coming apart. As usually defined, the koff is the first-order rate constant of dissociation.

B1: anti-hTfR antibody No. 6 (antibody, V domains shown)
VH: EVQLQESGPGLVAPSQSLSITCSVSGFSLSTYGVYWVRQPPGKGLEWLGIIWGDGSTNYHSALISRLTISKDNSKSQVFLKLNSLQTADTATYYCAKPDDVWGAGTTVTVSS
VL: DIVLTQTPSSLSASLGERVSLTCRASQEISGYLSWLQQKPDGTIKRLIYAASTLDSGVPKRFSGSRSGSDYSLTISSLESEDFADYYCLQYSSYPRTFGGGTKLEIK
notes: Mouse monoclonal antibody from a hybridoma, purified on Protein G; also called mouse anti-hTfR antibody No. 6; antibody of Clone 6 line
On to B1, for which the Kd was determined as 0.477 nM.

B2: anti-hTfR antibody No. 2 (antibody, V domains shown)
VH: EVQLQESGAELVRPGVSVKISCKGSGYTFTDYVMHWVRQSHAKSLEWIGVISTYYGHGSYNQRFKGKATMTVDKSSSTAYLELVRLTSEDSAIYYCVRGGYGSSSLAGNFDVWGAGTTVTVSS
VL: DIVLTQSPATLSVTPGDSVSLSCRASQSISNNLQWYQQKSHESPRLLIKYASQSISGIPSRFSGSGSGTDFTLSINSVETEDFGMYFCQQSNSWPRTFGAGTKLELKR
notes: Mouse monoclonal antibody from a hybridoma, purified on Protein G; also called mouse anti-hTfR antibody No. 2; antibody of Clone 2 line
For B2, the koff was determined as 1.75e-05 s⁻¹.
